Experimental data reported in patent US20260055143A1, “HIGH AFFINITY VARIANTS OF SH2 DOMAINS” (Axoiya Inc., priority 2023, published 2026).

Target: SLTI{pTyr}AQVQKA (Homo sapiens, UniProt Q13291)
Test: Competitive ELISA, SH2D1B variants
Assay type: binding

B1: SH2D1B: SH2D1B SH2 domain, SEQ ID 67 (protein, listed as Homo sapiens)
chain: YYHGRLTKQDCETLLLKEGVDGNFLLRDSESIPGVLCLCVSFKNIVYTYRIFREKHGYYRIQTAEGSPKQVFPSLKELISKFEKPNQGMVVHLLKPI
Superbinding grafts or the αA-2-Arg substitution
  change in affinity: could not be improved further
With either the sSrc or sFes graft
  change in affinity: no improvement in affinity
